Data reported in patent publication US20240083986A1.
Each block holds one binder with its values, some of them ahead of it.

Target: Hazel (Cor A 1, MyBiosource, Cat #MBS5304600) (Hazel) (UniProt Q08407)
Experiment: SPR, mAb captured via anti-hFc, 25 C

100 nM Analyte Bound (RU): -1 RU
B1: H4H16946P (antibody, human IgG4, V domains shown)
VH: EVQLVESGGGLVQPGGSLRLSCVASGFTFSNYDMNWVRQAPGEGLEWISYISYSDHNIYYIDSVKGRFTISRDNAKNSLYLQMNSLRAEDTAIYYCAREALASSSFDYWGQGTLVTVSS
VL: EIVMTQSPATLSVSPGERVTLSCRASQSVSGNLAWYQQKPGQAPRLLIYSASTGATGVPARFSGSGSGTEFTLTISSLQSEDFALYYCQQYNKWPRTIGQGTKVEIK

100 nM Analyte Bound (RU): 1 RU
B2: H4H17015P (antibody, human IgG4, V domains shown)
VH: QVQLQESGPGLVKPSQTLSLTCTVSGGSISSADHYWSWIRQQPGKGLEWIGYISYRGTTYYNPTLESRVSISVDTFKNQFSLMLHSVTVADTAVYYCAKVLQGLVRFRDYGFDVWGQGTTVTVSS
VL: DIQLTQSPPFLSASVGDRVTITCWASQDISSYLAWYQQNPGKSPKLLIYDAFTLHTGVPSRFSGSGSGTEFTLTISSLQPEDFATFYCQHLYSFPFTFGPGTKVDIK

100 nM Analyte Bound (RU): 0 RU
B3: H4H17028P (antibody, human IgG4, V domains shown)
VH: QVQLVESGGGVVQPGRSLRLSCAASGFTFSRYAIHWVRQAPGKGLEWVAVISYDGDDKYYGDSVKGRFTISRDNSKTMVYLHMNSLRTEDTAVYYCAKDGYSLYGKDYFDYWGQGTLVTVSS
VL: EIVLTQSPGTLPLSPGERATLSCRASQSITNSYLAWYQQKPDQAPRLLIYGASSRATGIPDRFSGSESGTDFTLTISRLEPEDFAVYYCQQYVRSPWTFGQGTKVEIK

100 nM Analyte Bound (RU): 0 RU
B4: H4H16991P (antibody, human IgG4, V domains shown)
VH: QVQLVQSGAEVRKPGASVKVSCKASGYTFTGYYLHWVRQAPGQGLEWMGLINPNTGGTNFAQKFQGRVTMTRDSSISAAYMELSRLRSDDTAVYYCARQHWNRYFDNWGQGTLVTVSS
VL: DIQMTQSPSTLSASVGDRVTITCRASQSVGNWLAWYQQKPGKAPKLLIQEASSIESGVPSRFSGSGSGTEFTLIVSSLQPDDFATYYCQQYNSYSWTFGHGTKVEIK

100 nM Analyte Bound (RU): 0 RU
B5: H4H17001P (antibody, human IgG4, V domains shown)
VH: QVQLVESGGGLVKPGGSLRLSCAASGFTFSDYYMNWIRQAPGKGLEWISLISSSGSAIYYSDSVKGRFTISRDNARKSLYLQVNSLRAEDTAVYYCARDRGEWALGAYYYGLDVWGQGTTVTVSS
VL: DIVMTQSPLSLPVTPGEPASISCRSSQSLLHSDGYNYLDWYLQKSGQSPQLLIYLGSNRASGVPDRFSGSGSGTDFTLKISRMEAEDVGVYYCMQALQTPYTFGQGTKLEIK

100 nM Analyte Bound (RU): 0 RU
B6: H4H17027P (antibody, human IgG4, V domains shown)
VH: EVQLVESGGGLVQPGGSLRLSCAASGFTFRNYAMHWVRQAPGEGLEWVAAIYRNSDSIDYADSVKGRFTISRDNAKNSLYLQMNSLKTEDTALYYCAKDEGFLEYFDSWGQGTLVTVSS
VL: EIVLTQSPGTLSLSPGERASLSCRASQSVSSSFLAWYQQKPGQAPRLLIYGVSSRFIGIPDRFSGGGSGTDFTLTITRLEPEDFAVYYCQQYGRSPWTFGQGTKVEIK

100 nM Analyte Bound (RU): 0 RU
B7: H4H16960P (antibody, human IgG4, V domains shown)
VH: QLQLQESGPGLVRPSETLSLTCTVSGGSISSSNYWWGWIRQPPGKGLEWIGSIYYSGITYYNPSLKSRVTISADTSKDQFSLKLRSVTAADTAVYYCAKLEWLRLDFWGQGTTVTVSS
VL: DIQMTQSPSSVSASVGDRVTITCRASQGISSWLVWYQQKPGKVPKLLIYAASSLQSGVPLRFSGSGSGTDFTLTISSLQPEDFATYYCQQAKSFPLTFGQGTRLEIK

100 nM Analyte Bound (RU): 0 RU
B8: H4H17033P (antibody, human IgG4, V domains shown)
VH: QVQLVQSGAEVKKPGASVKVSCKASGYTFAAHYMHWVRQAPGQGLEWMGWINTYTGGTNYGQKFQGRVTMTRDTSITTAYMELSRLRSDDTAVYYCARDRRNWNFVFEYWGQGTLVTVSS
VL: DIQMTQSPSSLSASVGDRVTISCRASQNIKNYLNWYQQKPGKAPKLLIYEASNLQSGAPSRFSGSGSGTDFTLTISSLEPEDFATYYCQQSFSIPWTFGQGTKVEIK

100 nM Analyte Bound (RU): 0 RU
B9: H4H17031P (antibody, human IgG4, V domains shown)
VH: QVQLQQWGAGLLKPSETLSLTCVVYGESFGNYHWNWIRQSPGKRLEWIGEINQNGHTNYNPSLKSRVTISVDTSKIQFSLRLNSVTAADTAVYFCARGHNYVNSYFGLDVWGQGTTVTVSS
VL: EIVMTQSPATLSVSPGERATLSCRTSQSVSISLAWYQRKPGQAPRLLIFGSSTRATGVPARFSGSGSGTEFTLTISSLQSEDFAVYYCQQYNNWPYTFGQGTKLEIK

100 nM Analyte Bound (RU): 0 RU
B10: H4H16950P (antibody, human IgG4, V domains shown)
VH: QVQLVQSGAEVKKPGASVKVSCKTSGYTFTNYGITWVRQAPGQGLEWMGWISAYNGNTNYAQNVQGRVTMTTDTSTSTAYMEVRSLRSDDTAVYYCARRSSMLHFQHWGQGTLVTVSS
VL: DIVMTQSPDSLAVSLGERATINCKSSQHVLYDSSNENYLAWFQQKPGQPPKLLIYWASTRESGVPDRFSGSGSGTDFTLTISSLQAEDVAVYYCQQYSSAPYTFGQGTKLEIK

100 nM Analyte Bound (RU): 0 RU
B11: H4H16987P (antibody, human IgG4 S228P, kappa, V domains shown)
VH: EVQLVESGGGLVQPGGSLRLSCAASGFTVSSNSMSWVRQAPGEGLEWVSVIFSGGITYYSDSVKGRFTISRHNSKNTLYLQMNSLRTEDTAVYYCARHSNWNFDAFDIWGQGTMVTVSS
VL: DIQMTQSPSSLSASVGDRVTITCRASQSFDTYLNWYQQKPGKAPNLLIYATSSLQSGVPSRFSGSGSGTDFTLTISSLQPEDFGTYYCQQSYSIPYTFGQGTKLEIKR
